One assay concerns rat NP cells. Description: Western blotting of rat NP cells treated with IL-1β/TNFα with or without inhibitors or growth factors. Type of assay: cell-based. Particulars: rat-tail NP cells treated with IL-1β and TNFα, Western blot, FIG. 5g-5h. As to the method:
After euthanasia, healthy rat lumbar/caudal spine IVDs, injured tail discs and bovine caudal IVD NPs were removed aseptically and the nucleus pulposus (NP) was removed separately and enzymatically digested according to methods established by the present inventors^16. Similarly, human degenerative disc NPs were enzymatically digested using Pronase (0.4%, 1 hr at 37° C.) followed by Collagenase II treatment (0.015%, O/N, 37° C.). The following day, the cells were filtered with a 70p cell strainer and cultured within a hypoxic incubator (NuAire, MN, USA) in 3.5% O2, 5% CO2, in Advanced Dulbecco's modified Eagle's medium (ADMEM) supplemented with 8% fetal bovine serum (FBS) and penicillin and streptomycin (100 U/mL). For treatments, the cells were either cultured in serum free ADMEM (no treatment controls) or treated with interleukin-1β (IL-1β, 10 ng/mL), tumor necrosis factor-alpha (TNFα, 50 ng/mL), connective tissue growth factor (CTGF, 10-100 ng/mL), Wnt-inducible soluble protein 2 (WISP2, 10-100 ng/mL) or transforming growth factor beta 1 (TGFβ1, 5-20 ng/mL) for various time points under hypoxic conditions.
Equal amounts of whole cell or tissue lysates prepared using RIPA lysis buffer were subjected to Western blotting as described earlier^18,19. Total lysates (30 μg) were resolved on 10% sodium dodecyl sulphate-polyacrylamide gels (SDS-PAGE) under reducing conditions and then proteins were electro-transferred onto polyvinyledendifluoride (PVDF) membranes (BioRad, CA). After blocking with 5% non-fat powdered milk in Tris-buffered saline (TBS, 0.1 M, pH=7.4), blots were incubated with rabbit or goat polyclonal/mouse monoclonal primary antibodies at 4° C. overnight. […] Blots were washed three times with TTBS for 15 minutes and protein bands were detected by the enhanced chemiluminescence method (BioRad, CA) on Kodak Hyperfilm.

In assay [1] the test system is human degenerated disc NP cells. Description: MTT cell viability assay. The format is cell-based. As to the method:
(§1) Nucleus pulposus cells (rat, bovine and human) were plated in 96-well flat bottom plates in order to evaluate the effect of treatment with growth factors in cell viability and proliferation assays. Rat NP cells were treated with CTGF, WISP-2 and TGFβ1 in a dose (1 ng/mL-100 ng/mL) and time dependent manner (24 hrs-96 hrs) to determine the optimum dose and time for the assessment of these growth factors on viability. Cell viability was determined using 3-(4,5-dimethylthiazol-2-yl)-2,5-diphenyltetrazolium bromide (MTT, Sigma-Aldrich, USA) as previously described^44. A BrdU-ELISA (colorimetric) assay (Cat #ab126556, Abcam) was used for determining the effect of treatment with CTGF or TGFβ1 on human and rat NP cells (healthy/injured) following the manufacturer's instructions. Briefly, NP cells were treated with CTGF or TGFβ1 alone or in combination for 48 hrs following addition of BrdU reagent O/N in each well. Incorporated BrdU in DNA of proliferating cells was determined using anti-BrdU antibody and quantified by ELISA as per the manufacturer's instructions.

The test system of assay [2] is rat-tail disc NP cells (healthy/injured). Description: MTT cell viability assay. Type of assay: cell-based. Particulars: CTGF 100 ng/ml, TGFβ1 10 ng/ml, 48 hrs-72 hrs. On the procedure: as §1
For assay [3], the system named is human degenerative disc NP cells. Briefly: Caspase 9 Lumi-Glo assay, cytokine induced. The format is cell-based. To be noted: 48 hrs. As to the method:
Apoptosis induced in NP cells (rat and human) as result of treatment with pro-inflammatory cytokines (IL-1β and TNFα) was determined using Caspase 3/7 and Caspase 9 specific Lumi-Glo assays (Promega, Madison). Briefly, NP cells were plated and treated with either IL-1β alone or in combination with TNFα only or in presence of CTGF and TGFβ1 for 48 hrs, followed by addition of specific reagents for Caspase 3/7 and Caspase 9 as per the manufacturer's instructions. Cells were incubated for another 4 hrs at 37° C., and plates were read in a multi-well luminescence plate reader.

The test system of assay [4] is rat-tail injured disc NPs. Briefly: Pre-clinical rodent needle puncture disc injury model of DDD, intra-discal injection. Type of assay: in vivo, Wistar rat. On the procedure: 12-week old female Wistar rats (Charles River Laboratories International, Inc., MA, USA) were used in order to develop a pre-clinical rodent model of DDD and to evaluate the therapeutic potential of NCCM, CTGF and TGFβ1 in these pre-clinical rodent models. Experiments were performed in accordance with the Guide for the Care and Use of Laboratory Animals, and the experimental protocols were approved by the ethics approval board of Toronto Western Hospital, Toronto, ON, Canada. The surgical procedure was as follows: Anesthesia was achieved using isofluorane (5 L/min plus 1 L/min O2) and maintained at 3 L/min. Once deeply anaesthetized, the animal was affixed on a stereotactic procedure apparatus (Model 900, Kopf Instruments California USA) with nose cone inhalation. For animal experiments, the tail was shaved and prepped with isopropanol in a sterile manner. Fluoroscopy was used to visualize needle penetration and to ensure that the needle penetrated into the center of the NP. For disc injury, a 26-gauge (G), 35° beveled, 0.75 inches high needle (Hamilton Company, USA) mounted on a Hamilton syringe was used. The needle was advanced completely through the selected tail IVD to penetrate the full thickness inclusive of the annulus fibrosus on both sides of the disc. Confirmation of needle placement was made using fluoroscopy and maintained in position for 2 minutes, withdrawn halfway to the center of the NP and left there for 1 minute and then slowly withdrawn completely over a 1-minute period. The animals were then removed from the stereotactic apparatus and allowed to recover in a warmed cage. At the end of study period i.e. 72 hrs-10 weeks, animals were humanely euthanized using CO2 and each vertebral lumbar/caudal motion segment was dissected aseptically. IVDs were either fixed in formalin for histological analysis or the nucleus pulposus (healthy/injured) was harvested and lysed in RIPA buffer (50 mM Tris, pH=7.4, 150 mM NaCl, 1% NP-40 and protease inhibitor cocktail) for western blotting.
To determine the regenerative potential of NCCM, CTGF or TGFβ1, 4 IVDs per animal of 12 week old rats were injured using a 26G needle as described above. Four weeks post-injury, animals were randomized into groups of six and an intra-discal injection (˜8 μL) of either NCCM, CTGF (100 ng/mL) or TGFβ1 (10 ng/mL) was given under local anesthesia. For NCCM injected animals, the control group consisted of animals that received an intra-discal injection (˜8 μL) of Hybridoma culture medium only, while phosphate buffered saline (PBS, 1×, pH=7.2) served as control for CTGF and TGFβ1 injected animal groups. Six weeks later, the NPs from injured and control discs were harvested and either fixed in formalin for histological analysis or lysed in RIPA lysis buffer for western blotting. Each of this experiment was repeated independently to ensure reproducibility.
The tissues were fixed in 10% formalin and decalcified in 10% EDTA solution. The decalcified disc was initially split in the mid sagittal plane, embedded in paraffin and 5p thick sections were obtained for histological evaluation. Hemaetoxylin and eosin (H&E) and Safranin-O staining was performed to assess general morphology and proteoglycan content in these tissue sections as previously described^16. For immunohistochemistry/immunofluorescence (IF), paraffin-embedded sections (5 μm) of human degenerative disc NP, bovine NP, healthy canines (NCD) and rat (healthy/injured) discs were deparaffinized in xylene, hydrated in gradient alcohol followed by antigen retrieval in Tris-EDTA buffer (pH=9.0). The sections were incubated with hydrogen peroxide (0.3% v/v) in methanol for 15 minutes to quench the endogenous peroxidase activity, followed by blocking with 10% serum to preclude non-specific binding. Thereafter, the slides were incubated with either rabbit or goat polyclonal/mouse monoclonal primary antibodies overnight (O/N) at 4° C. […]

The subject of assay [5] is bovine degenerative disc NP cells. Description: MTT cell viability assay. Type of assay: cell-based. To be noted: CTGF 100 ng/ml, TGFβ1 10 ng/ml, 48 hrs-72 hrs. On the procedure:
as §1

[6] abbreviates: rat tail injured discs, western blots, FIG. 12(b).

B1: WISP-2: Human recombinant Wnt-inducible soluble protein 2, Peprotech, identified in NCCM (protein, UniProt O76076 24-250, looked up)
CCN family member 5: QLCPTPCTCPWPPPRCPLGVPLVLDGCGCCRVCARRLGEPCDQLHVCDASQGLVCQPGAGPGGRGALCLLAEDDSSCEVNGRLYREGETFQPHCSIRCRCEDGGFTCVPLCSEDVRLPSWDCPHPRRVEVLGKCCPEWVCGQGGGLGTQPLPAQGPQFSGLVSSLPPGVPCPEWSTAWGPCSTTCGLGMATRVSNQNRFCRLETQRRLCLSRPCPPSRGRSPQNSAF
In the case of B1, the “expression of MMP-3, MMP-13 and Cox2 proteins in presence of growth factor” value in the assay with rat NP cells was “reduced expression”. Further, the “cell viability (MTT)” value in assay [1] and in assay [2] was “no significant change” throughout. Also, the “IL-1β and TNFα induced caspase 9 activity” value in assay [3] is “significant reduction”.

B2: CTGF: Human recombinant connective tissue growth factor, Peprotech cat #120-19, identified in NCCM (protein, UniProt P29279 27-349, looked up)
CCN family member 2: QNCSGPCRCPDEPAPRCPAGVSLVLDGCGCCRVCAKQLGELCTERDPCDPHKGLFCHFGSPANRKIGVCTAKDGAPCIFGGTVYRSGESFQSSCKYQCTCLDGAVGCMPLCSMDVRLPSPDCPFPRRVKLPGKCCEEWVCDEPKDQTVVGPALAAYRLEDTFGPDPTMIRANCLVQTTEWSACSKTCGMGISTRVTNDNASCRLEKQSRLCMVRPCEADLEENIKKGKKCIRTPKISKPIKFELSGCTSMKTYRAKFCGVCTDGRCCTPHRTTTLPVEFKCPDGEVMKKNMMFIKTCACHYNCPGDNDIFESLYYRKMYGDMA
In the case of B2, the “expression of MMP-3, MMP-13 and Cox2 proteins in presence of growth factor” value in the assay on rat NP cells was “reduced expression”. Also, the “aggrecan and collagen II (immunohistochemical analysis)” value in assay [4] (intra-discal injection four weeks following injury, 10 weeks post-injury, vs vehicle control) is given as “strong expression”. The “histological analysis, Safranin-O staining of NP” value in assay [4] (intra-discal injection four weeks following injury, CTGF 100 ng/mL, TGFβ1 10 ng/mL, 10 weeks post-injury, vs PBS) is recorded as “healthy disc, rich in NCs”. The “expression of MMP-13 and Cox2 in NP tissue lysates” value in assay [4] (setting [6]) is on record as “decreased expression”. Besides, the “stem cell marker Oct4 in NP tissue lysates” value in assay [4] (setting [6]) was “restoration”. In addition, the “cell viability (MTT)” value in assay [5] and in assay [2] was “increased the viability” each time. In assay [3], the “IL-1β and TNFα induced caspase 9 activity” value is listed as “significant reduction”.

The values above are taken from patent publication US12465618B2, “Compositions and methods for degenerative disc regeneration” (University Health Network, priority 2015, dated 2025).
